Measured values: US6107048

Legend:
monoclonal antibody 12C3 = assay: competition ELISA: peptide inhibits binding of 12C3 to recombinant Rab25
monoclonal antibody 8H10 = assay: competition ELISA: peptide inhibits binding of 8H10 to recombinant Rab11

KVSKQIQNSPRSNAIALGSAQAGQEPGPGQKR [Rab25 C-terminal variable region synthetic peptide]
IC60 (monoclonal antibody 12C3): 1 µg/mL

QKQMSDRRENDMSPSNNVVPIHVPPTTENKPKVQ [Rab11 C-terminal variable region synthetic peptide]
IC50 (monoclonal antibody 8H10): 1 µg/mL
